One block for each binder: values may come before it.
Key:
[1] = target: full-length mature cynomolgus EMR2 (residues Q24-N816) with N-terminal aspartic acid/lysine epitope tag, overexpressed on HEK293T cells (cynomolgus monkey (Macaca fascicularis))
[2] = target: full-length mature cynomolgus EMR2 (residues Q24-N816) with N-terminal aspartic acid/lysine epitope tag, overexpressed on HEK293T cells (cynomolgus monkey (Macaca fascicularis)); experiment: flow cytometry on transduced HEK293T; 293 naive MFI ND
[3] = target: full-length mature cynomolgus EMR2 (residues Q24-N816) with N-terminal aspartic acid/lysine epitope tag, overexpressed on HEK293T cells (cynomolgus monkey (Macaca fascicularis)); experiment: flow cytometry on transduced HEK293T; 293 naive MFI 96.8

Sequence of full-length mature cynomolgus EMR2 (residues Q24-N816) with N-terminal aspartic acid/lysine epitope tag, overexpressed on HEK293T cells (cynomolgus monkey (Macaca fascicularis)) (chain, as listed by the source): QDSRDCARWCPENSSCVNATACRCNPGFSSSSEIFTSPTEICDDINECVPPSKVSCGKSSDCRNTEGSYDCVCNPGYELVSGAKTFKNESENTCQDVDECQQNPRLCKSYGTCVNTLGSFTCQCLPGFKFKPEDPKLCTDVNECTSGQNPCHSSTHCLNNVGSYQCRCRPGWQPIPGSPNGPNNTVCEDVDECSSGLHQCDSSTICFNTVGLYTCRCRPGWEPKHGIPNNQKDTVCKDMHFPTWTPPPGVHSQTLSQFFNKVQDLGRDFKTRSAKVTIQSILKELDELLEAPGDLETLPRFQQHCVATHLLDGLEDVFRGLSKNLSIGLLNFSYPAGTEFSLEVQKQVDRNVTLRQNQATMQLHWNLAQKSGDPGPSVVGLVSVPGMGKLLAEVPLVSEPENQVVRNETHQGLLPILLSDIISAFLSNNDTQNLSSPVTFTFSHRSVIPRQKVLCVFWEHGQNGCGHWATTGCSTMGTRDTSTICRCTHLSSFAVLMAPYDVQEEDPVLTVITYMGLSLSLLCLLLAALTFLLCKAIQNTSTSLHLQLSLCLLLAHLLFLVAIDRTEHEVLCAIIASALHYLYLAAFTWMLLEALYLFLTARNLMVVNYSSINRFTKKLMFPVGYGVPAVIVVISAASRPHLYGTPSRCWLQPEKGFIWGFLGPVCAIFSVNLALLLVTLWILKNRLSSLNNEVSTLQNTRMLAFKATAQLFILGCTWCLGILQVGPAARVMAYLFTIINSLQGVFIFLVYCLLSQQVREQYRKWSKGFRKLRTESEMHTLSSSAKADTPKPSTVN

- FC MFI [2]: 41.2
B1: SC93.15 (antibody, IgG1, V domains shown)
VH: EVQLQQSGPELVKPGASVKISCKGSGYTFTDYFMNWVKLSHGKSLEWIGEINPNNGGTNYNQKFKGKATLTVDKSSSIAYMELRSLTSEDSAVYYCARPGTNYWGPGTTLTVSS
VL: DIVMTQSHKFMSTSVGDRVSITCKASQNVGTSVAWYQQKPGHSPKLLIYWASTRHTGVPDRFTGSGSGTDFSLTISSVQSEDLTDYFCQQYSSYPLTFGGGTKLEIK
- % live, FAB-saporin killing assay [1]: 101%

- FC MFI [3]: 220
B2: SC93.216 (antibody, IgG1, V domains shown)
VH: EVQLVESGGGLVKPGGSLKLSCAASGFTFSSYGMSWVRQTPEKRLEWVAAIHSNGDITYYPDTVKGRFTISRDNAKNTLYLQMSSLTSEDTALYYCANLAYWGQGTLVTVSA
VL: EIQMTQSPSSMSASLGDRITITCQATQDIVKNLNWYQQKPGKSPSSLIYYATELAEGVPSRFSGSGSGSDYSLTISNLESEDFADYYCLQFYEFPLTFGAGTKLELK
- % live, FAB-saporin killing assay [1]: 105%

Source: patent US20180327506A1
